Series [1] concerns Pa-30S small ribosomal subunit;Pa-aIF1*-K34A (Pyrococcus abyssi;Pyrococcus abyssi). Description: fluorescence anisotropy. To be noted: Anisotropy: 10 mM HEPES pH 7.5, 200 mM NaCl, 10 mM Mg acetate, 0.1% Tween 20, 51 C; toeprinting: 10 mM HEPES pH 7.5, 158 mM NaCl, 20 mM NH4Cl, 13.5 mM Mg …. (Fluorescence polarisation rises when a labelled molecule tumbles more slowly, as on binding a larger partner.)

For series [2], the system named is Pa-30S small ribosomal subunit;Pa-aIF1*-Y32A (Pyrococcus abyssi;Pyrococcus abyssi). Briefly: fluorescence anisotropy. The settings on record: Anisotropy: 10 mM HEPES pH 7.5, 200 mM NaCl, 10 mM Mg acetate, 0.1% Tween 20, 51 C; toeprinting: 10 mM HEPES pH 7.5, 158 mM NaCl, 20 mM NH4Cl, 13.5 mM Mg ….
For series [3], the system named is Pa-30S small ribosomal subunit;Pa-aIF1* (MDCC-coumarin labeled) (Pyrococcus abyssi;Pyrococcus abyssi). Briefly: fluorescence anisotropy. The settings on record: Kd of aIF1* for 30S:mRNA; best fit 0.2 nM; Anisotropy: 10 mM HEPES pH 7.5, 200 mM NaCl, 10 mM Mg acetate, 0.1% Tween 20, 51 C; toeprinting: 10 mM HEPES pH 7.5, 158 mM NaCl, 20 mM NH4Cl, 13.5 mM Mg ….
The subject of series [4] is Pa-30S small ribosomal subunit;Pa-aIF1*-R31A (Pyrococcus abyssi;Pyrococcus abyssi). Briefly: fluorescence anisotropy. To be noted: Anisotropy: 10 mM HEPES pH 7.5, 200 mM NaCl, 10 mM Mg acetate, 0.1% Tween 20, 51 C; toeprinting: 10 mM HEPES pH 7.5, 158 mM NaCl, 20 mM NH4Cl, 13.5 mM Mg ….
Series [5] concerns Pa-30S small ribosomal subunit;Pa-aIF1* unlabeled (Pyrococcus abyssi;Pyrococcus abyssi). Briefly: competition. To be noted: Kd of unlabeled aIF1* for 30S:mRNA; 180 nM mRNA; Anisotropy: 10 mM HEPES pH 7.5, 200 mM NaCl, 10 mM Mg acetate, 0.1% Tween 20, 51 C; toeprinting: 10 mM HEPES pH 7.5, 158 mM NaCl, 20 mM NH4Cl, 13.5 mM Mg ….
The test system of series [6] is Pa-30S small ribosomal subunit;Pa-aIF1 (Pyrococcus abyssi;Pyrococcus abyssi). Briefly: fluorescence anisotropy. To be noted: preformed 30S:aIF1; mRNA 0.5 nM; Anisotropy: 10 mM HEPES pH 7.5, 200 mM NaCl, 10 mM Mg acetate, 0.1% Tween 20, 51 C; toeprinting: 10 mM HEPES pH 7.5, 158 mM NaCl, 20 mM NH4Cl, 13.5 mM Mg ….
The test system of series [7] is Pa-30S small ribosomal subunit (Pyrococcus abyssi). Briefly: fluorescence anisotropy. The settings on record: 30S alone; mRNA 8 nM; Anisotropy: 10 mM HEPES pH 7.5, 200 mM NaCl, 10 mM Mg acetate, 0.1% Tween 20, 51 C; toeprinting: 10 mM HEPES pH 7.5, 158 mM NaCl, 20 mM NH4Cl, 13.5 mM Mg ….
Series [8] deals with Pa-aIF1*-Y32A (Pyrococcus abyssi). Briefly: fluorescence anisotropy. The settings on record: Anisotropy: 10 mM HEPES pH 7.5, 200 mM NaCl, 10 mM Mg acetate, 0.1% Tween 20, 51 C; toeprinting: 10 mM HEPES pH 7.5, 158 mM NaCl, 20 mM NH4Cl, 13.5 mM Mg ….
In series [9] the test system is Pa-aIF1*-R31A (Pyrococcus abyssi). Description: fluorescence anisotropy. The settings on record: Anisotropy: 10 mM HEPES pH 7.5, 200 mM NaCl, 10 mM Mg acetate, 0.1% Tween 20, 51 C; toeprinting: 10 mM HEPES pH 7.5, 158 mM NaCl, 20 mM NH4Cl, 13.5 mM Mg ….
The subject of series [10] is Pa-aIF1* (MDCC-coumarin labeled) (Pyrococcus abyssi). Briefly: fluorescence anisotropy. To be noted: aIF1* binding to 30S, no mRNA; Anisotropy: 10 mM HEPES pH 7.5, 200 mM NaCl, 10 mM Mg acetate, 0.1% Tween 20, 51 C; toeprinting: 10 mM HEPES pH 7.5, 158 mM NaCl, 20 mM NH4Cl, 13.5 mM Mg ….
For series [11], the system named is Pa-aIF1*-K34A (Pyrococcus abyssi). Description: fluorescence anisotropy. The settings on record: Anisotropy: 10 mM HEPES pH 7.5, 200 mM NaCl, 10 mM Mg acetate, 0.1% Tween 20, 51 C; toeprinting: 10 mM HEPES pH 7.5, 158 mM NaCl, 20 mM NH4Cl, 13.5 mM Mg ….
Series [12] concerns Pa-aIF1* unlabeled (Pyrococcus abyssi). Description: competition. To be noted: chase of labeled aIF1* from 30S; Anisotropy: 10 mM HEPES pH 7.5, 200 mM NaCl, 10 mM Mg acetate, 0.1% Tween 20, 51 C; toeprinting: 10 mM HEPES pH 7.5, 158 mM NaCl, 20 mM NH4Cl, 13.5 mM Mg ….
The target in series [13] is Pyrococcus abyssi small ribosomal subunit (Pa-30S) (Pyrococcus abyssi). Description: fluorescence polarisation; fluorescence anisotropy of coumarin-labeled aIF1 (50 nM for the variants; 13 nM for Pa-aIF1*) titrated with Pa-30S:mRNA complex (30S with a 2-fold molar excess of mRNA); 51°C; 10 mM HEPES pH 7.5, 200 mM NaCl, 10 mM MgAc, 0.1% Tween 20; quadratic fit.
Series [14] has the same target. Briefly: fluorescence polarisation; fluorescence anisotropy of coumarin-labeled aIF1* (50 nM) titrated with purified Pa-30S, no mRNA; 51°C; 10 mM HEPES pH 7.5, 200 mM NaCl, 10 mM MgAc, 0.1% Tween 20; quadratic fit.
Series [15] has the same target. Description: fluorescence polarisation; fluorescence anisotropy of coumarin-labeled aIF1 (50 nM for the variants; 13 nM for Pa-aIF1*) titrated with Pa-30S:mRNA complex (30S with a 2-fold molar excess of mRNA); 51°C; 10 mM HEPES pH 7.5, 200 mM NaCl, 10 mM MgAc, 0.1% Tween 20; quadratic fit. This is another data set of the same source.
For series [16] the target is unchanged.

On to “AUUUGGAGGUGAUUUAAAUGCCAAAG [wt-aEF1A mRNA 26-mer, unlabeled]”, for which the Kd (in general, the constant that tells how readily two partners part at equilibrium) is 45 nM in series [1]; 22 nM in series [2]; less than 1 nM in [3]; less than 3 nM in series [4]; 0.4 nM in series [5].
Turning to “AUUUGGAGGUGAUUUAAAUGCCAAAG [wt-aEF1A-mRNA 26-mer]”, the equilibrium dissociation constant (Kd) worked out at 0.07 nM in series [6] and 3.3 nM in series [7].
“Pa-30S (16S rRNA in small ribosomal subunit)”: the equilibrium dissociation constant (Kd) in series [8] is 20 nM; in [9], 84 nM; in series [10], 12 nM; in series [11], more than 300 nM; in [12], 40 nM.
For “Pa-aIF1* (Pyrococcus abyssi aIF1 K45C-C62S labeled with coumarin) (natural protein)”, the figures for the Kd in series [13], in series [14] and in series [15] were less than 1 nM, 12 nM and 0.2 nM, respectively.
Regarding Pa-aIF1*-K34A (natural protein), the values for the Kd in series [13] and in series [14] were 45 nM and more than 300 nM, respectively.
The matching figures for Pa-aIF1*-R31A (natural protein): less than 3 nM and 84 nM.
The matching figures for Pa-aIF1*-Y32A (natural protein): 22 nM and 20 nM.
On to Pa-aIF1-K34A (natural protein), for which the factor concentration needed for a toeprinting pattern of 30S:mRNA:aIF1 like that of wt-Pa-aIF1 in [16] is 8 fold.
